Values after ≈ are worked out from the molar mass of the structure shown. Each block holds one molecule with its values, some of them ahead of it.
Tests used:
[1] = test system: all three bacteria tested; assay: Antimicrobial testing, statement for all three bacteria tested; format: cell-based
Description: (§1) All three different heat incubated GDA samples were tested as antimicrobial agents with several different industrially relevant bacteria. The General Aerobic Bacteria isolated and used for this testing were identified as Pseudomonas aeruginosa and Enterobacter aggolomerans. Wild strain Sulfate Reducing Bacteria and Acid Producing Bacteria isolated from the produced fluids was also used. They were placed in a microtiter plate, where a high throughput test can be performed to determine MIC (minimum inhibitor concentration). Samples were tested at the following doses (1000, 500, 250, 125, 62.5, 31.2, 15.6, 7.8, 3.9, and 1.95ppm) and concentration was calculated based on the initial GDA concentration (15 w/v %).
(§2) The antimicrobial testing results shown in FIG. 49 summarizes the MIC of each sample for different bacteria.

[2] = test system: General Wild Strain Bacteria; assay: Microtiter MIC study, general wild strain bacteria; format: cell-based, Pseudomonas aeruginosa and Enterobacter aggolomerans; conditions: 24 hours of incubation; concentration based on initial GDA concentration
Description: as §1, §2

[3] = test system: APB (Acid Producing Bacteria); assay: Microtiter MIC study, acid producing bacteria; format: cell-based, Acid Producing Bacteria isolated from the produced fluids; conditions: 24 hours of incubation; concentration based on initial GDA concentration
Description: as §1, §2

[4] = Glucarate dehydratase reaction on glucarate monitored via LCMS; format: biochemical; conditions: pH 7.5
Description: (§3) A 100 μL volume was prepared containing 0.01% w/v Escherichia coli glucarate dehydratase (GlucD), 10 mM substrate (glucarate, gluconate, or glucuronate), 50 mM potassium phosphate, pH 7.5, 5 mM MgSO4, and 100 mM NaCl. The reaction was allowed to proceed for 24 hours and consumption of glucaric acid was monitored via LCMS at 0, 5mins, 20 mins, 1 hr, 2 hrs, and 24 hours. Full conversion of glucarate was observed within 20 minutes. […] The reaction is schematized in FIG. 36 and the results are graphed in Figure
To determine optimal enzyme loading, a 100 μL volume was prepared containing 0.001, 0.002, 0.005, or 0.01% w/v glucarate dehydratase (GlucD), 10% w/v glucarate, 50 mM potassium phosphate, pH 7.5, 5 mM MgSO4, and 100 mM NaCl. The reaction was allowed to proceed for 74 hours and formation of 4-deoxy-5-keoglucarate and consumption of glucarate was monitored via reverse phase LCMS. […] The reaction is schematized in FIG. 36 and the results are graphed in FIG. 40.

[5] = Glucarate dehydratase reaction with gluconate or glucuronate as substrate; format: biochemical; conditions: 0.01% w/v GlucD, 10 mM substrate, pH 7.5, 24 hours
Description: as §3

[6] = Specific activity of pyranose oxidase (POX) enzymes; format: biochemical; conditions: Table 4; unit = 1 umol of substrate consumed min^−1
From the text: POX is a flavin-dependent enzyme found in lignocellulose-degrading fungi that oxidizes glucose to 2-ketoglucose concomitantly with hydrogen peroxide formation. Recombinant Trametes hirsuita POX is currently used in the food industry for baking, providing some evidence that the enzyme can be produced at low cost. A unit is defined as 1 umol of substrate consumed min^−1. Based on an in-house empirical evaluation, the Irpex lacteus, Trametes multicolor, and Phanerochaete chrysosporium POXs have sufficient starting activity. This is presented graphically in FIG. 32 and Table 4.

[7] = Table 4; previously characterized POX enzymes; cited from earlier work

Molecule: Oc1ccc(O)c(O)c1O (single isomer, unassigned) [1,2,3,4-tetrahydroxybenzene]
antimicrobial activity (in words) [1]: good antimicrobial activity

Molecule: O=CCCCC=O [Glutaraldehyde - 50%, Glutaraldehyde]
MIC [2]: 1000 mg/L (≈ 9.99 mM)
MIC [3]: 500 mg/L (≈ 4.99 mM)

reaction with gluconic or glucuronic acid as substrate [5]: No reaction was observed
Molecule: GlucD: Escherichia coli glucarate dehydratase
time to full conversion of glucarate ([4]; 0.005% enzyme, 10% w/v glucarate): ≤ 24 h
time to full conversion of glucarate ([4]; 0.01% w/v GlucD, 10 mM glucarate): ≤ 0.333 h

Molecule: Irpex lacteus: POX enzyme of Irpex lacteus
Specific Activity (in-house evaluation) [6]: 6.0 (in-house U mg^−1
Specific Activity (previously characterized) [7]: evaluation), 86 U mg^−1

Molecule: Trametes multicolor: POX enzyme of Trametes multicolor
Specific Activity (in-house evaluation) [6]: 6.8 (in-house U mg^−1

B1: Lyophyllum shimeji: POX enzyme of Lyophyllum shimeji (protein, UniProt Q75ZP8 1-618, looked up)
Pyranose 2-oxidase: MSLSTEQMLRDYPRSMQINGQIPKNAIHETYGNDGVDVFIAGSGPIGATYAKLCVEAGLRVVMVEIGAADSFYAVNAEEGTAVPYVPGYHKKNEIEFQKDIDRFVNVIKGALQQVSVPVRNQNVPTLDPGAWSAPPGSSAISNGKNPHQREFENLSAEAVTRGVGGMSTHWTCSTPRIHPPMESLPGIGRPKLSNDPAEDDKEWNELYSEAERLIGTSTKEFDESIRHTLVLRSLQDAYKDRQRIFRPLPLACHRLKNAPEYVEWHSAENLFHSIYNDDKQKKLFTLLTNHRCTRLALTGGYEKKIGAAEVRNLLATRNPSSQLDSYIMAKVYVLASGAIGNPQILYNSGFSGLQVTPRNDSLIPNLGRYITEQPMAFCQIVLRQEFVDSVRDDPYGLPWWKEAVAQHIAKNPTDALPIPFRDPEPQVTTPFTEEHPWHTQIHRDAFSYGAVGPEVDSRVIVDLRWFGATDPEANNLLVFQNDVQDGYSMPQPTFRYRPSTASNVRARKMMADMCEVASNLGGYLPTSPPQFMDPGLALHLAGTTRIGFDKATTVADNNSLVWDFANLYVAGNGTIRTGFGENPTLTSMCHAIKSARSIINTLKGGTDGKNTGEHRNL
Specific Activity (previously characterized) [7]: 1.92 U mg^−1
